From publication PMC11270187 (Antibodies, 2024) come the findings set out here.

For assay [1], the target named is T1, TEV-cleaved recombinant HLA-DR (Homo sapiens, …).
T1 construct: also called TEV-cleaved HLA-DR; source: HEK 293S (GnT I-/-), purified (HisTrap Ni-NTA, SEC), TEV-cleaved; for crystallization also EndoH-treated and purified a second time
The experiment in a line: BLI; Fabs loaded on FAB2G biosensors; two-fold dilutions of TEV-cleaved HLA-DR from 500 nM; 25 °C; PBS pH 7.4, 0.01% BSA, 0.002% Tween; 1:1 model. To be noted: both partners purified. (In general: In BLI a coated tip is dipped into the sample, and binding shifts an interference pattern.)

Assay [2] addresses T2, HLA-DR on BJAB cells (Homo sapiens; endogenous HLA-DR of BJAB …).
T2 construct: HLA-DR α chain, endogenous on BJAB B-lymphoblastoid cells; HLA-DR β chain, endogenous on BJAB B-lymphoblastoid cells; also called HLA-DR-expressing B-lymphoblastoid cell line BJAB; source: endogenous, on BJAB cells
In words: flow cytometry on cells; full antibody titration of purified IgGs on HLA-DR-expressing BJAB cells, Fc Block, 1 h at 4 °C, detected with AF488 goat anti-human IgG Fcγ; also after storage of the IgGs at -20, 4 or 40 °C for up to 4 weeks. To be noted: one partner purified.

Assay [3] has as its target T2, HLA-DR on BJAB cells. The experiment in a line: flow cytometry on cells; screen: purified IgGs at 10 µg/mL on HLA-DR-expressing BJAB cells, Fc Block, 1 h at 4 °C, detected with AF488 goat anti-human IgG Fcγ. To be noted: one partner purified. In general terms: Flow cytometry measures light scatter and fluorescence of single cells or particles in a stream.

Residue numbers refer to the chain shown, from its start. Names and notes keep the numbering of the source. Some results are limits rather than exact numbers.

B1:  (Fab, V domains shown)
VH: QVQLQESGPGLVKPSETLSLTCTVSGFSLTSYGVHWIRQPPGKGLEWIGVIWAGGSINYNSALMSRVTISKDTSKNQVSLKLSSVTAADTAVYYCARAYGDYVHYAMDYWGQGTLVTVSS
VL: DIQMTQSPSSLSASVGDRVTITCRASQEISGYLTWLQQKPGKAPKLLIYAASTLDSGVPSRFSGSGSGTDFTLTISSLQPEDFATYYCLQYTNYPLTFGQGTKLEIK
notes: as the heavy chain of m11 with the changes below; as the light chain of m11; also called V14-V71K/F78V double mutant; V14-V71K-F78V; source: FreeStyle 293-F, transfected, purified (KappaSelect, MonoS, SEC)
Regarding B1, the Kd (as a rule, a measure of binding affinity in units of concentration) in assay [1] is 206 nM.

B2: humanized 44H10 version 19 IgG (V17 with light chain G66R back-mutation) (antibody, V domains shown)
VH: QVTLKESGPVLVKPTETLTLTCTVSGFSLTSYGVHWIRQPPGKALEWLAVIWAGGSISYSTSLMSRLTISKDTSKSQVVLTMTNMDPVDTATYYCARAYGDYVHYAMDYWGQGTLVTVSS
VL: B1 VL with G66R
notes: as the heavy chain of m5; as the light chain of m5 with the change below; IgG with human Fc; also called V19; source: FreeStyle 293-F, transfected, purified (protein A, SEC)
On to B2, for which the “fold improvement of EC50 against V17” value in assay [2] was approximately 3 fold.

B3: humanized 44H10 version 20 IgG (V17 with light chain S60K back-mutation) (antibody, V domains shown)
VH: B2 VH
VL: B1 VL with S60K
notes: as the heavy chain of m5; as the light chain of m5 with the change below; IgG with human Fc; also called V20; source: FreeStyle 293-F, transfected, purified (protein A, SEC)
As for B3, the “fold improvement of EC50 against V17” value in assay [2] was approximately 3 fold.

B4: humanized 44H10 version 21 IgG (V17 with light chain S60K and G66R back-mutations) (antibody, V domains shown)
VH: B2 VH
VL: B1 VL with S60K, G66R
notes: as the heavy chain of m5 (IGHV2-26 with Kabat 44H10 CDRs); as the light chain of m5 with the changes below; IgG with human Fc; also called V21; source: FreeStyle 293-F, transfected, purified (protein A, SEC)
As to B4, in assay [2], the “fold improvement of EC50 against V17” value was approximately 3 fold.

B5: humanized 44H10 version 22 IgG (antibody, V domains shown)
VH: B1 VH
VL: B1 VL with S60K, G66R
notes: as the heavy chain of m10 (IGHV4-59 with Kabat 44H10 CDRs) with the back-mutations below; as the light chain of m5 (IGKV1-16, printed here as IGHK1-16, with Kabat 44H10 CDRs) with the back-mutations below; IgG with human Fc; also called V22; lead humanized candidate; source: FreeStyle 293-F, transfected, purified (protein A, SEC)
With B5, the “fold reduction in EC50 against parental 44H10 IgG” value in assay [2] is less than 2 fold.

B6: parental 44H10 IgG (antibody, V domains shown)
VH: QVQLKESGPGLVAPSQSLSITCTVSGFSLTSYGVHWVRQPPGKGLEWLGVIWAGGSINYNSALMSRLSISKDNFKSQVFLKMSSLQTDDTAMYYCARAYGDYVHYAMDYWGQGTSVTASS
VL: DIQMTQSPSSLSASLGQRVSLTCRASQEISGYLTWLQQKPDGTIKRLVYAASTLDSGVPKRFSGSRSGSDYSLTISSLESEDFADYYCLQYTNYPLTFGAGTKLELK
notes: murine IGHV2-9; Fab part also in PDB 8EUQ; murine IGKV9-124; also in PDB 8EUQ; IgG; also called mAb 44H10; murine mAb 44H10; source: FreeStyle 293-F, transfected, purified (protein A, SEC)
With B6, in assay [3], the binding result is on record as “binds”.
